# Data published in the nanobody polyreactivity screen of Harvey et al. (2022).
# Test: yeast display, Sf9 membrane polyspecificity reagent, FACS + sequencing; frameworks hold sequencing errors
# In short: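 After 36–48 hours of galactose induction, yeast (Saccharomyces cerevisiae BJ5465) displaying a synthetic nanobody library were stained at 4 °C for 1 hour with 10% biotinylated, detergent-solubilized Sf9 membrane reagent. Streptavidin microbeads enriched the stained cells before FACS sorting into low and high (top ~1%) gates on anti-HA and streptavidin fluorescence. Each clone's polyreactivity label reflects its gate of origin.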
row,Sequence,polyreactivity (PSR sort gate)
1,QVQLVESGGGLVQAGGSLRLSCAASGSTFRFYTMGWYRQAPGKERELVAAISGSGGSTYYADSVKGRFTISRDNAKNTVYLQMNSLKPEDTAVYYCAADKSRYASHRGYWGQGTQVTVSS,low polyreactivity
2,QVQLVESGGGLVQAGGSLRLSCAASGSTFRGYAMGWYRQAPGKEREFVAAISRRGGTTYYADSVKGRFTISRDNAKNTVDLQMNSRNPEDTAVYYCNAVLYARQRDRWARYDYWGQGTQVTVSS,high polyreactivity
3,QVQLVESGGGLVQAGGSLRLSCAASGSTFRGYAMGWYRQAPGKERELVAAIISDGTTNYADSVKGRFTISRDNAQTTVYLQMNSLKPEDTAVYYCNAEVQGGRPQFDYWGQGTQVTVSS,low polyreactivity
4,QVQLVESGGGLVQAGGSLRLSCAASGSTFRGYAMGWYRQAPGKERELVAAITFRGGSTYYADSVKGRFTISRDNAKNTVFLQMNSLKPEDTEVYYCYVRIYGYDYWGQGTQVSVSS,high polyreactivity
5,QVQLVESGGGLVQAGGSLRLSCAASGSTFRGYAMGWYRQAPGKERELVATITSGGSTKYADSVKGRFTISRDNAKNTVYLQMNSLKPEDTAVYYCNAVPRSWSPYSHWFDYWGQGTQVTVSS,low polyreactivity
6,QVQLVESGGGLVQAGGSLRLSCAASGSTFRGYAMGWYRQAPGKERELVATITSGGSTNYADSVKGRFTISRDNAKNTVYLQMNSLKPEDTAVYYCNARWVPRYWKYFPANYGYWGLGTQVTVSS,high polyreactivity
7,QVQLVESGGGLVQAGGSLRLSCAASGSTFRGYAMGWYRQEPGKERELVAAITSGGSTNYADSVKGRFTISRDNAKNTVYLQMISLKPEDTAVYYCNADYTYLYDPNDYWGQGTQVTVSS,low polyreactivity
8,QVQLVESGGGLVQAGGSLRLSCAASGSTFRGYTMGRNRQAPGKERELVAAISFRGTSTYYADSVKGRFTISRDNAKITVYLQMNSLIPEDTAVDYCAAVYTWGPGYGHDYWGQGTQVTVSS,low polyreactivity
9,QVQLVESGGGLVQAGGSLRLSCAASGSTFRHNAMGWYRQAPGKERELVAAITRSGGRTFYADSVKGRFTISRDNAKNTVYLQMNSLKPEDTAVYYCWGLGTQVTVSS,low polyreactivity
10,QVQLVESGGGLVQAGGSLRLSCAASGSTFRHYAMGWYRQAPGKERELVAAISIRGGSTNYADSVKGRFTISRDNAKNTVYLQMNSLKPEDTAVYYCNACRLRYIFKSYDYWGQGTQVTVSS,high polyreactivity
11,QVQLVESGGGLVQAGGSLRLSCAASGSTFRHYAMGWYRQAPGKERELVAVISWGGTSTYYADSVKGRFTISRDNAKNTVYLQMKSLKPEDTAVYYCNKAYFPIFKGYEMYYWGQGTQVTVSS,low polyreactivity
12,QVQLVESGGGLVQAGGSLRLSCAASGSTFRINTMGWYRQAPGKERELVATITGSGGSTYYADSVKGRFTISRDNAKNTVYLQMNSLKPEDTAVYYCAAVGDQNEYDYWGQGTQVTVSS,low polyreactivity
13,QVQLVESGGGLVQAGGSLRLSCAASGSTFRIYAMGWYRQAPGKERELVAAISKRGGSTYYADSVKGRFTISRDNAKNTVYLQMNSLKPEDTAVYYCAKPPYSQYEFDYWGQGTQVTVSS,high polyreactivity
14,QVQLVESGGGLVQAGGSLRLSCAASGSTFRIYVMGWYRQAPGKEREFVAAISRGGGSTYYADSVKGRFTISRDNAKNTVYLQMNSLKPEDTAVYYCAAVTRDYGSRSGLDYWGQGTQVTVSS,high polyreactivity
15,QVQLVESGGGLVQAGGSLRLSCAASGSTFRLNAMGWYRQAPGKERELVAAITSGGSTTYADSVKGRFTISRDNAKNTVYLQMNSLKPEDTAVYYCAAANWGTPPYDYWGQGTQVTVSS,low polyreactivity
16,QVQLVESGGGLVQAGGSLRLSCAASGSTFRLYAMGWYRQAPGKERELVAAISTRGSSTYYADSVKGRFTISRDNAKNTVYLQMNSLKPEDTAVYYCAADAYFIYSRYWYDYWGQGTQVTVSS,high polyreactivity
17,QVQLVESGGGLVQAGGSLRLSCAASGSTFRNNAMGWYRQAHGKERELVAAISRGGGSTYYADSVKGRFTISRDNAKNTVYLQMNSLKPEDTAVYYCARRPTGIYDYWGQGTQVTVSS,high polyreactivity
18,QVQLVESGGGLVQAGGSLRLSCAASGSTFRNYAMGWYRQAPGKERELVATISASGGSTYYADSVKGRFTISRDNAKNTVYLQMNSLKPEDTAVYYCNAVVKLWGLVIPPGDYDYWGQGTQVTVSS,high polyreactivity
19,QVQLVESGGGLVQAGGSLRLSCAASGSTFRQNAMGWYRQAPGKERELVAAITYRVASTYYADSVKGRFTISRDNAKNTVYLQMNSLKPEDSAVYYCAAYKRRSNGRYWTYDYWGQGSQVTVSS,high polyreactivity
20,QVQLVESGGGLVQAGGSLRLSCAASGSTFRQYAMGWSRQAPGKERELVAAISSSGGSTYYADSVKGRFTISRDNAKNTVYLQMNSLKPEDTAGYYCNARLYGSASWGQPKEYDYWGQGTQVTVSS,low polyreactivity
21,QVQLVESGGGLVQAGGSLRLSCAASGSTFRQYAMGWYRQAPGKERELVAGISYRGGRTYYADSVKGRFTISRDNAKNTVYLQMNSLKPEDTAVYYCNALRHYRDISVDGDDYWGQGTQVTVSS,high polyreactivity
22,QVQLVESGGGLVQAGGSLRLSCAASGSTFRRNAMGWYRQAPGKERELVAAISGSGGSTYYADSVKGRFTISRDNAKNTVYLQMNSLKPEDTAVYYCAARVVKNYKSDSWGQGTQVTVSS,high polyreactivity

row,Sequence,polyreactivity (PSR sort gate)
1,QVQLVESGGGLVQAGGSLRLSCAASGSTFRRNAMGWYRQAPGKERELVAAITSTDSTYYADSVKGRFTISRDNAKNTVYLQMNSLKPEDTAVYYCAKGYWWGGEMGYWGQGSQVTVSS,low polyreactivity
2,QVQLVESGGGLVQAGGSLRLSCAASGSTFRRYAMGWYRQAPGKERELVAAITTADITNYADSVKGRFTISRDNAKNTVYLQMNSLKPEDTAVYYCAAPVAYRGSRNFIYRYNYWGQGTQVTVSS,high polyreactivity
3,QVQLVESGGGLVQAGGSLRLSCAASGSTFRRYTMGWYRQAPGKERELLAAISSGGSTYYADSVKGRFTISRDNAKNTVYLQMNSLNPEDTAVYYCAAKNYPLTRYWRYDYSEYYYWGQATQVTVSS,high polyreactivity
4,QVQLVESGGGLVQAGGSLRLSCAASGSTFRRYVMGGYREAAGKERELVAAISGSSGSTYYADSVKGRFTISRDNAKNTVYLQMNSLKPEDTAVYYCAAVRATQGYRYGYWGQGTQVTVSS,high polyreactivity
5,QVQLVESGGGLVQAGGSLRLSCAASGSTFRSYAMGWYRQAPGKERELVAAISSSGSRTYYADSVKGRFTISRDNAKNTVYLQMNSLKPEDTAVYYCAADYYYNTKLDYWGQGTQVTVSS,high polyreactivity
6,QVQLVESGGGLVQAGGSLRLSCAASGSTFRSYAMGWYRQAPGKERELVAAISYSGDSTYYADSVKGRFTISRDNAKNTVYLQMNSLKPEDTAVYYCAALRDWDIQGEPWKRYGYWGQGTQVTVSS,low polyreactivity
7,QVQLVESGGGLVQAGGSLRLSCAASGSTFRSYAMGWYRQAPGKERELVAVISSGDSTYYADSVKGRFTISRDNAKNTVYLQMNSLKPEDTAVYYSAADSYVLGRWYGYWGQGTQVTVSS,low polyreactivity
8,QVQLVESGGGLVQAGGSLRLSCAASGSTFRSYARGWYRQAPGKERELVAVISKRGGSTYYADSVKGRFTISRDNAKNTVYLQMNSLKPEDTAVYYCAADVYRYYAPNDYYWGQGTQVTVSS,high polyreactivity
9,QVQLVESGGGLVQAGGSLRLSCAASGSTFRSYGMGWYRQAPRKERELVAGISVSGGRTSYADSVKGRFTISRDNAKNTVYLQMNSLKPEDTAVYYCAARRSKVGYHRDYYWGQGTQVTVSS,high polyreactivity
10,QVQLVESGGGLVQAGGSLRLSCAASGSTFRSYVMGWYRQAPGKERELGAGISYRGGTTYYADSVKGRFTISRDNAKNTVYLQMNSLKPEDTAVYNCAADSTPYVLSGNYDYWGQGTQVTVSS,low polyreactivity
11,QVQLVESGGGLVQAGGSLRLSCAASGSTFRTYAMGWYRQAPGKERDLVASIDSTGSTNYADSVKGRFTISRDNAKNTVYLQMNSLKPEDTAVYYCAAETYSDPPFYAYDYWGQGTQVTVSS,low polyreactivity
12,QVQLVESGGGLVQAGGSLRLSCAASGSTFRTYAMGWYRQAPGKERELVAAISFNGTRTYYADSVKGRFTISRDNAKNTVYLQMNSLKPEDTAVYYCAARGRGSFHQKGYYYWGQGTQVTVSS,high polyreactivity
13,QVQLVESGGGLVQAGGSLRLSCAASGSTFRVNAMGWYRQAPGKERELVAAISYRGGSTYYADSVKGRFTISRDNAKNTVYLQMINLKPEDTAVYYCNADLKRRTYGPDSYYWGQGTQVTVSS,high polyreactivity
14,QVQLVESGGGLVQAGGSLRLSCAASGSTFRVNAMGWYRQEPGKEREFVDAITWSTGSTYYADSVKGRFTISRDYAMNTVYLQMNSLKPEDTAVYYCAAREQTYSQRGKKLYYFWGQGTQVTVST,high polyreactivity
15,QVQLVESGGGLVQAGGSLRLSCAASGSTFRVNARGWYRQAPGKERELVAAISFSAGGTYYADSVKGRFTISRDNAKNTVYLQMNSLKPEDTAVYYCAADFYYYDYWGQCTQVTVSS,low polyreactivity
16,QVQLVESGGGLVQAGGSLRLSCAASGSTFRVYAMGWYRQAPGKEREFVAAITGSDGSTYYADSVKGRFTISRDNAKNTVYLQMNSLKPEDTAVYYCAADYYLQNYETGYGYWGQGTQVTVSS,low polyreactivity
17,QVQLVESGGGLVQAGGSLRLSCAASGSTFRVYAMGWYRQAPGKERELVAGITQTSGRTYYADSVKGRFTISRDNAKNTVYLQMNSLKPEDTAVYYCARESYSSYFHYYYWGQGTQVTVSS,high polyreactivity
18,QVQLVESGGGLVQAGGSLRLSCAASGSTFRVYDMGWYRQAPGKERELVASISYSVGSTYYADSVKGRFTISRDNAKNTVYLQMNSLKPEDTAVYYCAARPSYQPSSLARYDYWGQGTQVTVSS,low polyreactivity
19,QVQLVESGGGLVQAGGSLRLSCAASGSTFRWNAMGWYRQAPGKERELDAAINSGGSTNYADSVKGRFTISRDNAKNTVYLQMNSLKPEDTAVYYCATRYDVSYIKFDYWGQGTQVTVSS,high polyreactivity
20,QVQLVESGGGLVQAGGSLRLSCAASGSTFRWYAMGWYRQAPGKERELVAAISRSGGNTYYADSVKGRFTISRDNAKNTVYLQMNSLKPEDTAVYYCAARKLYGSPEHGYWGQGTQVTVSS,high polyreactivity
21,QVQLVESGGGLVQAGGSLRLSCAASGSTFRWYAMGWYRQAPGKERELVASISGSGGSTYYADSVKGRFTISRDNAKNTVYLQMNSLKPEDTAVYYCNKRYFTYLGEHTVGYWGQGTQVTVSS,high polyreactivity
